From the supplement of paper PMC11780869 come the findings set out here.

The subject of this series is Bacillus subtilis. In words: cleaved RNA product abundance (RNA/gDNA barcode ratio) relative to median wild-type variant (ratio to wild type); higher = more accumulation of the downstream cleavage product. As to the method: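 MPRA in B. subtilis. Mutagenized RNase Y cleavage-site regions (9% mutation rate) were inserted into a barcoded reporter mRNA (truncated aprE or tetM). Cells were grown in LB at 37°C to OD600 0.3. The cleaved RNA isoform was gel-purified and its barcodes counted; the RNA:gDNA barcode ratio was normalised to the median wild-type variant, and the median over barcodes is reported per variant. The printed sequence is the variable window only; the reporter flanks are not printed.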

Where [1] appears, read: experiment (reporter, strain, medium): exp 4a: truncated aprE reporter, strain BJT201 with 2% xylose (RNase J1 expressed), cleavage site: cggR-gapA (positions -7 to +36 mutated).
Where [2] appears, read: experiment (reporter, strain, medium): exp 2b: truncated aprE reporter, strain BJT200, cleavage site: cggR-gapA (positions -7 to +36 mutated).
[3] abbreviates: experiment (reporter, strain, medium): exp 8a: truncated aprE reporter, strain BJT201 with 2% xylose (RNase J1 expressed), cleavage site: glnRA (positions -5 to +31 mutated).
Setting [4] is: experiment (reporter, strain, medium): exp 6: tetM reporter, strain 168, cleavage site: cggR-gapA (positions -7 to +36 mutated).

Turning to “ACAGACGAAGGAGCCGCAAAGAAGTTATTACGGGATGAATAATCCCTCAATATAGATATCTCTCACTTATTTAAA”, under setting [1], the “cleaved RNA product abundance” value is 0.351.

For “ACAGACGAAGGAGCCGCTAAGAAGTTATTAAGAGATGAATAATCCCTCAATATAAATATCTCTCACTTATTTAAA”, the “cleaved RNA product abundance” value was 0.126 under setting [2] and 0.135 under setting [1]. Take “ACAGACGAAGGAGCCGCAAAGAAGTTATTAAGTGATGAATAACCCCTCAATATAAATATCTCTCACTTATTTAAA”: the “cleaved RNA product abundance” value under setting [1] was found to be 0.109. For the sequence “CGACATGTCCCGCTTCTTTCATTAATCCGTTATCAACTGTTTTGCTATATACATTTACGTTTTAAGAGGAGGAAT”, the “cleaved RNA product abundance” value under setting [3] amounted to 0.376. Still for that read-out and setting: the value for “CGACATGTCCCGCTTCTTTCATTAATCCGTTACCAACTGTTATGCTATATACATTTACCTTTTAAGAGGAGGAAT” was 0.307. As for “ACAGACGAAGGAGCCGCAAAGAAGTTATAAAGGAATGAATAATCCCTCAATATAAATATCTCTCACTTATTTAAA”, the “cleaved RNA product abundance” value runs as follows: under setting [2], 0.0926; under setting [1], 0.124. In the case of “ACAGACGAAGGAGCCGCAAAGAAGTTATTATGGGATGAATAATCCCTCTATATAAATATCTCTCACTTATTTAAA”, the “cleaved RNA product abundance” value under setting [1] came to 0.223. The same measure, in the same setting: for “ACAGACGAAGGAGCCGCAAAGAAGTTATTAAGAGATGAATAATCCCTCAATATAAATATCTCTCACTATTTAAAG” the value was 0.151; for “ACAGACGAAGGAGCCGCAAAGAATTTATGAAGGGATGAATAATCCCTCAATATAAATATCTCTCACTTATTTAAA”, 0.325. Still for that read-out and setting: the value for “ACAGACGAAGGAGCCGCAAAGAAGTTATTAAGGGATGAATAATCCATCAATACAAATATCTCTCACTTATTTAAA” was 0.0901. For “CGACATGTCCCGCTTCTTTCATTAATCCGTTAGCAACTGTTTTGCTATATAAATGTACCTTTTAAGAGGAGGAAT”, the “cleaved RNA product abundance” value under setting [3] stood at 1.78. Regarding “ACAGACGAAGGAGCCGCAAAGAAGTTATTAAGGGATGAATAATCCCTCAACAAAAATATCTCTCACTTATTTAAA”, under setting [2], the “cleaved RNA product abundance” value was found to be 0.105. Regarding “ACAGACGAAGGAGCCGCAAAGAAGTTATGAAGGGATGAATAATTCCTCAATATAAATATCTCTCACTTATTTAAA”, the “cleaved RNA product abundance” value under setting [2] amounted to 0.274 and the “cleaved RNA product abundance” value under setting [1] was determined as 0.316.

With “CGACATGTCCCGCTTCTTTCATTATTCCGTTAGCAACTGTTTTGCTATAAACAGTTACCTTTTAAGAGGAGGAAT”, the “cleaved RNA product abundance” value under setting [3] came out at 0.0919. With “CGACATGTCCCGCTTCTTTCATTAATCCGTTAGCAACTGTTTTACTATATACATTTATCTTTTAAGAGGAGGAAT”, the “cleaved RNA product abundance” value under setting [3] turned out to be 0.588. Turning to “ACAGACGAAGGAGCCGCAAAGAAGTTATTAAAGGATGAATAATCCCGCAATATAAATATCTCTCACTTATTTAAA”, under setting [1], the “cleaved RNA product abundance” value is 0.219. Turning to “ACAGACGAAGGAGCCGCAAAGAAATTATTAAGGGATGAATAATACCTCAATATAAATATCTCTCACTTATTTAAA”, the “cleaved RNA product abundance” value reads like this: under setting [2], 0.141; under setting [1], 0.153. Take “CGACATGTCCCGCTTCTTTCATTAATCTGTTAGCAACTTTTTTGCTATATACATTTACCTTTTAAGAGGAGGAAT”: the “cleaved RNA product abundance” value under setting [3] came to 0.706.

Regarding “CGACATGTCCCGCTTCTTTCATTAATCCGTTAGCATCTGTTTTGATATATACATTTACCTTTTAAGAGGAGGAAT”, under setting [3], the “cleaved RNA product abundance” value was found to be 0.491. For “ACAGACGAAGGAGCCGCAAAGAAGTTATTAAGGGATGAATAATCCCTCAATATAAAAATGTCTCACTTATTTAAA”, the “cleaved RNA product abundance” value under setting [1] stood at 1.17. Same read-out and setting: for “ACAGACGAAGGAGCCGCAAAGCAGTTATTAAGGGATGAGTAATCCCTCAATATAAATATCTCTCACTTATTTAAA” the value was 0.658; for “ACAGACGAAGGAGCCGCATAGAAGTTATTAAGGGATGAATAATCCCTCAATATAAACATCTCTCACTTATTTAAA”, 1. As to “ACAGACGAAGGAGCCGCAAAGAAGTCATTAAGAGATGAATAATCCCTCAATATAAATATCTCTCACTTATTTAAA”, the “cleaved RNA product abundance” value by setting is: under setting [2], 0.108; under setting [1], 0.137. As to “CGACATGTCCCGCTTCTTTCATTAATCCGTTAGCAACTTTTTTCCTATATACATTTACCTTTTAAGAGGAGGAAT”, under setting [3], the “cleaved RNA product abundance” value came out at 0.697. With “ACAGACGAAGGAGCCGCAAAGAAGTTATTAAGGGATGAATACTCCCTCAATATAAATATCTCTCACTTATTTAAA”, the “cleaved RNA product abundance” value runs as follows: under setting [2], 0.565; under setting [1], 0.732; under setting [4], 0.566.

Regarding “ACAGACGAAGGAGCCGCAAAGAGGTTATTAAGGGATAAATAATCCCTCAATATAAATATCTCTCACTTATTTAAA”, the “cleaved RNA product abundance” value under setting [1] was determined as 0.62.

As for “ACAGACGAAGGAGCCGCAAAGAAGTTATTAAGGGATCAATATTCCCTCAATATAAATATCTCTCACTTATTTAAA”, the “cleaved RNA product abundance” value under setting [2] came to 0.709. For the sequence “ACAGACGAAGGAGCCGCAAAAAAGTTATTAAGCGATGAATAATCCCTCAATATAAATATCTCTCACTTATTTAAA”, the “cleaved RNA product abundance” value under setting [2] is 0.091 and the “cleaved RNA product abundance” value under setting [1] was determined as 0.123.

“ACAGACGAAGGAGCCGCAAAGAAGTTATTCAAGGATGAATAATCCCTCAATATAAATATCTCTCACTTATTTAAA”: the “cleaved RNA product abundance” value reads like this: under setting [2], 0.134; under setting [1], 0.242. With “CGACATGTCCCGCTTCTTTCATTAATCCGATAGCAACTGTTTTCCTATATAAGCTTACCTTTTAAGAGGAGGAAT”, under setting [3], the “cleaved RNA product abundance” value came out at 0.295.

With “ACAGACGAAGGAGCCGCAAAGAAATTATTAAAGGATGAATAATCCCTCAATATAAATATCTCTCACTTATTTAAA”, the “cleaved RNA product abundance” value came out at 0.144 under setting [2] and 0.221 under setting [1]. On to “ACAGACGAAGGAGCCGCAAAGAAGTTATTAAGGGAAGAATAATCCCTCTATATAAATATCTCTCACTTATTTAAA”, for which, under setting [1], the “cleaved RNA product abundance” value is 0.239. For “CGACATGTCCCGCTTCTTTCATTAATCTGTTAGCAACCGTTTTGCTATATACATTTACCTTTTAAGAGGAGGAAT”, under setting [3], the “cleaved RNA product abundance” value was 0.436.

Take “CGACATGTCCCGCTTCTTTCATTAATCCGTTAGGAACTGTTTTGCTATATACATTTACTTTTTAAGAGGAGGAAT”: the “cleaved RNA product abundance” value under setting [3] stood at 0.247. Turning to “ACAGACGAAGGAGCCGCAAAGAAGTTATTAAGGGATGAAGAATCCCTCAATATAAATATCTCTCACTTATTTAAA”, the “cleaved RNA product abundance” value runs as follows: under setting [2], 0.653; under setting [1], 0.658; under setting [4], 0.732. “ACAGACGAAGGAGCCGCAAAGAAGTTATTAACGAATGAATAATCCCTCAATATAAATATCTCTCACTTATTTAAA”: the “cleaved RNA product abundance” value is, setting by setting: under setting [2], 0.0836; under setting [1], 0.0881. On the same counts, the results for “ACAGACGAAGGAGCCGCGAAGAAGTTATTAAGAGATGAATAATCCCTCAATATAAATATCTCTCACTTATTTAAA” are 0.114 and 0.108. In the same order, the values of “ACAGACGAAGGAGCCGCAAAGAATTTATTCAGGGATGAATAATCCCTCAATATAAATATCTCTCACTTATTTAAA” are 0.624 and 0.549.

Turning to “ACAGACGAAGGAGCCGCAAAGAAGTTATTAAGGGATCAAAAATCCCTCAATATAAATATCTCTCACTTATTTAAA”, the “cleaved RNA product abundance” value came out at 0.804 under setting [2] and 1.17 under setting [1]. In the case of “CGACATGTCCCGCTTCTTTCATTAATCCGTTAGCAACAGTTTTGCTATATACATTTACCTTTTAAGAGGAGGAAT”, under setting [3], the “cleaved RNA product abundance” value amounted to 0.814. The same measure, in the same setting: for “CGACATGTCCCGCTTCTTTCATTAACCCGTTAGCAACTGTATTGCTATATACATTCACCTTTTAAGAGGAGGAAT” the value was 0.379. For “ACAGACGAAGGAGCCGCAATGAAGTTATTAAGGGAAGAATAATCCCTCAATATAAATATCTCTCACTTATTTAAA”, the “cleaved RNA product abundance” value was determined as 0.389 under setting [2] and 0.702 under setting [1]. With “ACAGACGAAGGAGCCGCAAACAAGTTATAAAAGGATGAATAATCCCTCAATATAAATATCTCTCACTTATTTAAA”, the “cleaved RNA product abundance” value under setting [2] turned out to be 0.139. On to “ACAGACGAAGGAGCCGCAAAGAAGTTATTAAGGGATAAATAATCCCTCAATATAACTATCTCTCACTTATTTAAA”, for which the “cleaved RNA product abundance” value under setting [1] was 0.156. Consider “CGACATGTCCCGCTTCTTTCATTACTCCGTTAGCAAGTGTTTTGCTATATACATTTACCTTTTAAGAGGAGGAAT”, for which the “cleaved RNA product abundance” value under setting [3] amounted to 0.557. On to “ACAGACGAAGGAGCCGCAAAGCAGTTATTAAGGGATGCATAATCCCTCAATATAAATATCTCTCACTTATTTAAA”, for which the “cleaved RNA product abundance” value under setting [2] was 0.0725. As to “ACAGACGAAGGAGCCGCAAAGAAGTTATTAAGGGATGAATAATCGCTCATTATAAATATCTCTCACTTATTTAAA”, the “cleaved RNA product abundance” value under setting [2] was 0.0605. For the sequence “ACAGACGAAGGAGCCGCAAAGAAGTAATTAAGGGATGAATAATCCATCAATATAAATATCTCTCACTTATTTAAA”, the “cleaved RNA product abundance” value is, setting by setting: under setting [2], 0.148; under setting [1], 0.183. Take “ACAGACGAAGGAGCCGCAAAGAAGTTATTACGGGATGAATAATCCCTTAATATAAATATCTCTCACTTATTTAAA”: the “cleaved RNA product abundance” value under setting [1] came out at 1.47.

Regarding “CGACATGTCCCGCTTCTTTCATTAATCAGTCAGCAACTGTTTTGCTATATACATTTACCTTTTAAGAGGAGGAAT”, under setting [3], the “cleaved RNA product abundance” value was found to be 0.367. As for “ACAGACGAAGGAGCCGCAAAGAAGTTATTAAGGGATGAATAATCCTTCAATATAAATTTCTCTCACTTATTTAAA”, the “cleaved RNA product abundance” value under setting [1] worked out at 0.346. For “CGACATGTCCCGCTTCTTTCATTAATCCGTTAGAAACTGTTTTGCTATAAACATTTACCTTTTAAGAGGAGGAAT”, the “cleaved RNA product abundance” value under setting [3] was determined as 0.203.
